Experiments:
MBP-LIC1FL (human) = assay: ITC; protein or peptide in the syringe titrated into the protein in the cell; 20 mM HEPES pH 7.5, 100 mM NaCl, 0.25 mM TCEP; temperature listed in the figures (20 °C for most titrations)
MBP-LIC1_(1–461) (human) = assay: as above
LIC1_(433–458) (human) = assay: as above
Hook1_(11–443) (human) = Hook1_(11–443) (human) (UniProt Q9UJC3); assay: ITC; MBP-LIC1FL in the syringe, Hook1_(11–443) in the cell; 30 °C; 20 mM HEPES pH 7.5, 100 mM NaCl, 0.25 mM TCEP
Chain of Hook1_(11–443) (human) (Q9UJC3 11-443): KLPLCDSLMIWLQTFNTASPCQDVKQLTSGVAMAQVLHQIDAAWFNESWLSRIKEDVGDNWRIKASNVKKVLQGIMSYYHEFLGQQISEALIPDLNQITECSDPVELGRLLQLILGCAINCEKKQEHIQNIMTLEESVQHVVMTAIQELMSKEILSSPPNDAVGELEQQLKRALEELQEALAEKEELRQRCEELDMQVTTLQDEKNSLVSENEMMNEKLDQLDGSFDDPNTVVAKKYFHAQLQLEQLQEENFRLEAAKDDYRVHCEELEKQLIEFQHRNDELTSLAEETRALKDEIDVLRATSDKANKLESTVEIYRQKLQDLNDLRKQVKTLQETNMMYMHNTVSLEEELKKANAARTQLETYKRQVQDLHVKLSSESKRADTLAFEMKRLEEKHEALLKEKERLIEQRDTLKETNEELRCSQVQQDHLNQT

Chain of Hook1_(11–166) (Q9UJC3 11-166): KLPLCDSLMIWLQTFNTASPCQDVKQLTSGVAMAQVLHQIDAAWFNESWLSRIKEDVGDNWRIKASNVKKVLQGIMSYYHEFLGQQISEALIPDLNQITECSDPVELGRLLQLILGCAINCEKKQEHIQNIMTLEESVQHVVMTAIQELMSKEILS

Kd (MBP-LIC1FL (human)) [µM] | stoichiometry N (MBP-LIC1FL (human)) | Kd (MBP-LIC1_(1–461) (human)) [µM] | Kd (LIC1_(433–458) (human)) [µM] | Kd (Hook1_(11–443) (human)) [µM] | stoichiometry N (Hook1_(11–443) (human)) | Substance
12.9 | 1 | – | – | – | – | Hook1_(1–239)GCN4 (from UniProt Q9UJC3-1 1-239)
12.7 | 1 | 10.1 | 15.7 | – | – | Hook1_(11–166) (from UniProt Q9UJC3-1 11-166) (domain or fragment)
– | – | – | – | 8.1 | 1 | MBP-LIC1FL (natural protein)

From publication PMC5841405
